Experimental data: PMC10447426 (2023)

How the values were obtained:
[1] = target: T1, Fc fusion protein of mouse TNFR2 (mouse, UniProt P25119 23-258); test: SPR; BIAcore X-100; Fc fusion proteins of mouse TNFR2 and mouse TNFR1 immobilised on CM5 chip by amine coupling; HBS-EP plus running buffer; single-cycle kinetics, five concentrations up to 100 nM, 2 min injection at 30 μl/min, 2 min dissociation; R2agoTNF fitted with a monovalent and scR2agoTNF-Fc with a bivalent model (avidity); n = 1
T1 chain: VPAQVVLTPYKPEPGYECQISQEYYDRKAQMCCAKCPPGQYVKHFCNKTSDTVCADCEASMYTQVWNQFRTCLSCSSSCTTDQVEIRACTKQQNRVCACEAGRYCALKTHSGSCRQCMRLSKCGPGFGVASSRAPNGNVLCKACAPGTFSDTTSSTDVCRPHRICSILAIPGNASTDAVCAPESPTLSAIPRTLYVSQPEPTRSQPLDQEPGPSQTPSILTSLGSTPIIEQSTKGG

[2] = target: T1, Fc fusion protein of mouse TNFR2; test: SPR

Kd [1]: 1.75 nM
koff [2]: 0.00277 s⁻¹
B1: R2agoTNF (ligand)
chain: VRSSSRTPSDMPVAHVVANPQAEGQLQWTNHGGNALLANGVELRDNQLVVPSEGLYLIYSQVLFSGQGCPSTHVLLTHTISRIAVSYQTPVNLLSAIRSPCQRETPEGAEANPWYEPIYLGGVFQLEPGDRLSAEINRPDYLNFPDSGEVYFGIIAL
